Paper PMC4851294 (PLoS ONE, 2016)

Tested on: O=C[C@H](O)[C@H](O)COP(=O)(O)O
Experiment: purified protein

Question: What does the source list for “3-deoxy-D-arabino-heptulosonate 7-phosphate synthase (MtuDAH7PS) (Mycobacterium tuberculosis H37Rv)”?
Answer: Km: 28 ± 2 µM; kcat: 4.7 ± 0.1 s⁻¹; kcat/Km: 170000 ± 20000 M⁻¹ s⁻¹
